Laboratory results taken from patent US20070286858A1 (Pfizer, published 2007).
Positions count from the first letter of the chain named. Numbers in names are those of the source. Where “and” joins values, the source holds several entries; their conditions need not be identical. Equal entries are not always repeated.

B1: XT-M4 VH-VL ScFv construct (scFv)
scFv: EVQLVESGGGLVQPGRSLKLSCVVSGFTFNNYWMTWIRQTPGKGLEWVASINNSGDNTYYPDSVKDRFTISRDNAKSTLYLQMNSLRSEDTATYYCTRGGDITTGFDYWGQGVMVTVSSDGGGSGGGGSGGGGSSDIQMTQSPSSMSVSLGDTITITCRASQDVGIYVNWFQQKPGKSPRRMIYRATNLADGVPSRFSGSRSGSIYSLTISSLESEDVADYHCLEFDEHPLTFGSGTKVEIK
notes: Flag tag inferred from detection
B2: XT-H2 VH-VL ScFv construct (scFv)
scFv: QVQLQQSGAELAKPGASVKMSCKASGYTFTTYWMHWVKQRPGQGLYWIGYINPSTGYTEYNQKFKDKATLTADKSSSTAYMQLSSLTSEDSAVYYCARWAGYTIDYWGQGTSVTVSSDGGGSGGGGSGGGGSSDVVLTQTPLSLPVNIGDQASISCKSTKSLLNSDGFTYLDWYLQKPGQSPQLLIYLVSDRFSGVPDRFSGSGSGTDFTLTISRVEAEDLGVYYCFQSNSLPLTFGSGTKLEIK
notes: as for B1
B3: V2.2 (Y46E) / v2.1 (antibody, V domains shown)
VH: QVQLVQSGAEVKKPGASVKVSCKASGYTFTTYWMHWVRQRPGQGLEWIGYINPSTGYTEYNQKFKDRVTMTADTSISTAYMELSRLRSDDTAVYYCARWAGYTIDYWGQGTLVTVSS
VL: DIVMTQTPLSLSVTPGQPASISCKSTKSLLNSDGFTYLDWYLQKPGQSPQLLIYLVSDRFSGVPDRFSGSGSGTDFTLKISRVEAEDVGVYYCFQSNSLPLTFGGGTKVEIK
notes: XT-H2 construct expressed in COS cells; also called XT-H2 hVH V2.2 + hVL V2.1
B4: V2.3 (I48M) / mVL (antibody, V domains shown)
VH: B3 VH with E46Y, I48M
VL: DVVLTQTPLSLPVNIGDQASISCKSTKSLLNSDGFTYLDWYLQKPGQSPQLLIYLVSDRFSGVPDRFSGSGSGTDFTLTISRVEAEDLGVYYCFQSNSLPLTFGSGTKLEIK
notes: XT-H2 construct expressed in COS cells; also called XT-H2 hVH V2.3 + mVL
B5: V2.3 (I48M) / v2.0 (antibody, V domains shown)
VH: B3 VH with E46Y, I48M
VL: B3 VL with I2V, M4L
notes: XT-H2 construct expressed in COS cells; also called XT-H2 hVH V2.3 + hVL V2.0
B6: V2.3 (I48M) / v2.1 (antibody, V domains shown)
VH: B3 VH with E46Y, I48M
VL: B3 VL
notes: XT-H2 construct expressed in COS cells; also called XT-H2 hVH V2.3 + hVL V2.1
B7: V2.0 (R40, Y46, I48, A71, K73) / v3.0 DPK24 grafted (antibody, V domains shown)
VH: B3 VH with E46Y
VL: DIVMTQSPDSLAVSLGERATINCKSTKSLLNSDGFTYLDWYQQKPGQPPKLLIYLVSDRFSGVPDRFSGSGSGTDFTLTISSLQAEDVAVYYCFQSNSLPLTFGGGTKVEIK
notes: XT-H2 construct expressed in COS cells; also called XT-H2 hVH V2.0 + hVL V3.0
B8: V2.1 (R40A) / v3.0 (antibody, V domains shown)
VH: B3 VH with R40A, E46Y
VL: B7 VL
notes: XT-H2 construct expressed in COS cells; also called XT-H2 hVH V2.1 + hVL V3.0
B9: V2.2 (Y46E) / v3.0 (antibody, V domains shown)
VH: B3 VH
VL: B7 VL
notes: XT-H2 construct expressed in COS cells; also called XT-H2 hVH V2.2 + hVL V3.0
B10: V2.3 (I48M) / v3.0 (antibody, V domains shown)
VH: B3 VH with E46Y, I48M
VL: B7 VL
notes: XT-H2 construct expressed in COS cells; also called XT-H2 hVH V2.3 + hVL V3.0
B11: humanized XT-M4 hVH-V2.0 / hVL-V2.7 (antibody, human IgG1, V domains shown)
VH: EVQLVESGGGLVQPGGSLRLSCAASGFTFNNYWMTWVRQAPGKGLEWVASIDNSGDNTYYPDSVKDRFTISRDNAKNSLYLQMNSLRAEDTAVYYCARGGDITTGFDYWGQGTLVTVSS
VL: DIQMTQSPSSLSASVGDRVTITCRASQDVGIYVNWYQQKPGKAPKRLIYRATNLADGVPSRFSGSGSGTDFTLTISSLQPEDFATYYCLEFDEHPLTFGGGTKVEIK
B12: humanized XT-M4 hVH-V1.0 / hVL-V2.4 (antibody, human IgG1, V domains shown)
VH: B11 VH with D52N, A88S
VL: B11 VL with R46L, G66R
B13: humanized XT-M4 hVH-V1.0 / hVL-V2.7 (antibody, human IgG1, V domains shown)
VH: B11 VH with D52N, A88S
VL: B11 VL
B14: humanized XT-M4 hVH-V2.0 / hVL-V2.4 (antibody, human IgG1, V domains shown)
VH: B11 VH
VL: B11 VL with R46L, G66R
B15: humanized XT-M4 hVH-V2.0 / hVL-V2.11 (antibody, human IgG1, V domains shown)
VH: B11 VH
VL: B11 VL with Y36F, K45R, G66R
B16: humanized XT-M4 hVH-V2.0 / hVL-V2.12 (antibody, human IgG1, V domains shown)
VH: B11 VH
VL: B11 VL with K45R, G66R
B17: humanized XT-M4 hVH-V2.0 / hVL-V2.13 (antibody, human IgG1, V domains shown)
VH: B11 VH
VL: B11 VL with G66R
B18: humanized XT-M4 hVH-V2.0 / hVL-V2.14 (antibody, human IgG1, V domains shown)
VH: B11 VH
VL: B11 VL with Y36F, G66R

Assays:
[1] = biological target: T1, human RAGE-Fc fusion protein (human, UniProt Q15109 23-344); experiment: ELISA of in vitro translated ScFv on coated human RAGE-Fc, anti-Flag detection
T1 construct: also called hRAGE-Fc; huRAGE-Fc; not shown: Fc domain of human IgG
Experimental: ELISA plates coated with human RAGE-Fc (5 ug/ml) or BSA (200 ug/ml) in bicarbonate buffer overnight at 4° C., washed with PBS+tween 0.05% and blocked for 1 hour at room temperature with 2% milk powder PBS. Plates were incubated with in vitro translated ScFv for 2 hours at room temp. Plates were blocked and detection was with anti-Flag antibody (1/1000 dilution) followed by rabbit anti-mouse HRP (1/1000 dilution). […] Values for Kd of the ScFv in both formats as determined by BIACORE™ are used to determine the optimum antigen concentrations for selection experiments.

[2] = biological target: T1, human RAGE-Fc fusion protein; experiment: competition ELISA on human RAGE-Fc; labelled competitor not named
[3] = biological target: T1, human RAGE-Fc fusion protein; experiment: competition ELISA on coated hRAGE-Fc; competitor 12.5 ng/ml biotinylated rat XT-M4
Experimental: ELISA plates were coated overnight with 1 ug/ml human RAGE-Fc. […] Briefly, plates were coated overnight with 1 ug/ml human RAGE-Fc.

Row | Binder | ED50 [2] | IC50 [3] | further results
1 | B1 | – | – | binding result [1]: binds
2 | B2 | – | – | binding result [1]: binds
3 | B3 | 5 nM | – | –
4 | B4 | 10 nM | – | –
5 | B5 | 4.5 nM | – | –
6 | B6 | 5 nM | – | –
7 | B7 | 8 nM | – | –
8 | B8 | 5 nM | – | –
9 | B9 | 5 nM | – | –
10 | B10 | 5 nM | – | –
11 | B11 | – | 8.5 µg/mL | –
12 | B12 | – | 4.5 to 8.5 µg/mL | –
13 | B13 | – | 4 to 9.5 µg/mL | –
14 | B14 | – | 2.9 µg/mL | –
15 | B15 | – | 0.15 to 1.05 µg/mL and 0.1 to 0.45 µg/mL | –
16 | B16 | – | 2.7 µg/mL | –
17 | B17 | – | 1.5 µg/mL | –
18 | B18 | – | 0.2 µg/mL | –
